# Source: the nanobody polyreactivity screen of Harvey et al. (2022)
# Assay: yeast display, Sf9 membrane polyspecificity reagent, FACS + sequencing; frameworks hold sequencing errors
# In short: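 Synthetic nanobody libraries on Saccharomyces cerevisiae BJ5465 were galactose-induced for 36–48 hours, stained 1 hour at 4 °C with 10% biotinylated, detergent-solubilized Sf9 membrane reagent and enriched on streptavidin microbeads. FACS then separated cells into low and high (top ~1%) gates by anti-HA (expression) and streptavidin (reagent binding) fluorescence. Genes were colony-PCR amplified, MiSeq 2 × 250 sequenced and CDR-length filtered. A clone's polyreactivity label is that of its gate of origin.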
row,Sequence,polyreactivity (PSR sort gate)
1,QVQLVESGGGLVQAGGSLRLICAASGFIFWSNAMGWYRQAPGKEMELVAAITWNGGDTYYADSVKGRFTISRDNAKNTVYLQMNSLKPEDTAVYYCAAVHSRRARYDYWGQGTQVTVSS,low polyreactivity
2,QVQLVESGGGLVQAGASLRLSCAASGSTFDRNVMGWYRQAPGKERELVAAISRVSSTNYADSVKGRFTISRDNAKNTVYLQMNSLKPEDTAVYYCAADRAGSIMNYWGQGTQVTVSS,low polyreactivity
3,QVQLVESGGGLVQGGGSLRLSCAASGRTFYWNAMGWYRQAPGKERELVAAIRWRGGNTYYADSVKGRFTISRDIEKNTVYLQMNSLKPEDSAVYYCAAAGGNTEMGYWGQGSQVTVSS,high polyreactivity
4,QVQLVESGGGLVQAGGSLRLSCAASGRTSVINAMGWYRQAPGKERELVATISRGGSTNYADSVKGRFTISRDNAKNTVYLQMNSLIPDDTAVYYCNADEQNESFIWSFTIIYDYWGQGTQVTVSS,low polyreactivity
5,QVQLVESGGGLVQAGGSLRLSCAASGSIFPHYAMGWYRQAPGKERELVASITYDGDSTYYADSVKGRFTISRDNAKNTVYLQMNSLKPEDTAVYYCAADYYYVYSSFGHYYWGQGTQVTVSS,low polyreactivity
6,QVQLVESGGGLVQAGGSLRLSCAASGSTFVSNGMGWYRQAPGKERELVAAITRGGSTKYADSVKGRFTISRDNAKNTVYLQMNSLKPEDTAVYYCAKRLYTRPGWYDYWGQGTQVTVSS,high polyreactivity
7,QVQIVESGGGLVQAGGSLRLSCAASGFIFYFYAMGWYRQAPGKERELVATITRRDDSTYYADSVKGRFTISRDNAKNTVYLQMNSLKPEDTAVYYCNADFWLLSEYDYWGQGTQVTVSS,low polyreactivity
8,QVQLVESGGGLVQAGGSLRLSCAASGITFDEYAMGWYIQAPGKERELVASISAGSTYYADSVKGRFTISRDNAKNTVYLQMNSLKPEDTAVYYCAVVVDYDAYRYWGYDYWGQGTQVTVSS,high polyreactivity
9,QVQLVESGGGLVQAGGSLRLSCAASGRIFPYYTLGWYTQAPGKERELVATITTGGSTNYADSVKGRFTLSRDNAENTVYLKMNSLKPEDTAVYYCNNDGVVEVRFTGRQEYDYWGQGTQVTVSS,low polyreactivity
10,QVQLEESGGGLVQAGGSLRLSCAASGRIFVIYAMGWYRQAPGKERELVAVITSGGRTYYADSVNGRFTISRDNAKNTVYLQMNRLKPEDTAVYYCAARTGRGFEYWGQGTQVTVSS,high polyreactivity
11,QVQIEESRGGLVQAGGSLRLSCAASGRTFYYYAMGWYRQAPGKERELVAAISYRGGSTYYADSVKGRFTISRDNAKNTVFLQLNSLKPEDTAVYYCAKYPHPLKYPGYPSEFDYWGQGTQVSVSS,low polyreactivity
12,QVQLVESGGGLVQAGGSLRLSCAASGGTFPQYAKGWYRQAPGKEREFVADITTRGGTTYYADSVKGRFTISRDNAKNTVYLQMNSLKPEENAVYYCAADNPADWWGLDYWGQGTQVTVSS,low polyreactivity
13,QVQLVESGGGLVQAGGSLRLSCAASGFIFGYYAMGWYRQAPGKERELVAAISFSGDRTYYADSVKGRFTISRDNAKNTVYLQMNSLKPEDTAVYYCNAKRWGDYTQYRYNYWGQGTQVTVSS,high polyreactivity
14,QVQLVESGGGLVQAGGSLRLSCAASGFTLYSYAMGWYRQAPGKERELVAAIRRRGASTYYADSVKGRFTISRDNAKNTVYLQMNSLKPEDTAVYYCAADAKYPDDDYWGQGTQVTVSS,high polyreactivity
15,QVQLVESGGGLVQAGGSLRLSCAASGRTFYANTMGWYRQAPGKERELVAGITSGGSTSYADSVKGRFTISRDNAKNTVYLQMNSLKPVDTAVYYCAAQFYRYTATGYYADGYWGQGTQVTVSS,low polyreactivity
16,QVQLVDSGGGLVQAGGSLRLSCAASGITFVFYAMGWYRQAPGKERELVAAISSSGGSTYYADSVKGRFTISRDNAKNTVYLQMNSLKPEDTAVYYCNAKVFSYQGAVRYDYWGQGTQVTVSS,high polyreactivity
17,QVQLVESGGGLVQAGGSLRLSCAASGSIFFVNAMAWYRQAPGKERESVAGITGGGSTYYADSVKGRFTISRDNAKNTVYLQMNSLKPEDTAVYYCNKKAYRKTGMDYWGQGTQVTVSS,low polyreactivity
18,QVQLVESGGGLVQAGGSLRLSCAASGRTFSYYAMGWYRQAPGKEREFVAAISSTGTSTYYADSVKGRFTISRDNAKNTFSLQMNRLKPEDTAVYYCNARVATYRLHSKFYYWGQGTQVTVSS,high polyreactivity
19,QAQLVESGGGLVQAGGSLRLSCAASGSIMYYAMGWYRHAPWKERELVATITRGGSTYYADSVKGRFTISRDNAKNTVYLQMNSLKPEDTAVYYCAKQFLPSGVYYEYDSWGQGTQVTVSS,low polyreactivity
20,QVQLVESGGGLVQAGGSLRLTCAASGRTFGHYAMGWYRQAPGKERELVAAISQRGGGTYYADSVKGRFTISRDNAKNTVYLQMNSLKPEDTAVYYCAADFGNSPYIKDYYYWGQGTQVTVSS,low polyreactivity
21,QVQLVESGAGLVQAGGILLLSSAASGRIFLFYSLGWSRQEPGKERELVAAISVRGGSTYYADSVKGRITISRDNAKNTVFLQMNSLKPEDTAVYYCNAPNYRSRFDYWGQGTQVTVSS,high polyreactivity
22,QVQLVESGGGLVQAGGSLRLSCAASGFTFYNYAMGWYRPAPGKERELVAAITKSGSRTYYADSVKGRFTISRDNAKNTVYLQMNSLKPEDTAVYYCARDYTVRGYDYWGQGTQVTVSS,high polyreactivity
23,QVQLVESGGGLVQPGGRLRLSCEASGIFTDYAMGCYRQEPGKERELVAAISWRGGSTYFADSVKGRFTISRDNAKKTVYLQMHSLKPEDTAVFYCAAGVRGGGGRYRYGYWGQGTQVTVSS,high polyreactivity
24,QVQLVESGGGLVQEGGSLRLSCAASGSTFYNYAMGLYRQAPGKERELVAAITSSGGSTYYADSVKGRFTISRDYAKNTVYLQMNSLKPEDTAVYYCNADDGYGQVHSISNYEMDYWGQGTQVTVSS,low polyreactivity
25,QVQLVESGGGLVQAGGSLSLSCAASGRTFYVYAMGWYIQAPGKERELVATISRGGSTTYADSVKGLFTISRDNAKNTVYLQMNSLKPEDTAVYYCATELLGGRRTVAYFWGQGSQVTVSS,low polyreactivity
26,QVQLVESGGGLVQAGGSLRLSCAASGRIFVGYAMGWYRQAPGKERELVAVISGRGGSTYYADSVKGRFTISRDNAKNTVYLQMNSLKPEDTAVYYCATDYYGPDYPLDYWGQGTQVTVSS,low polyreactivity
27,QVQLVESGGGLVQAGGSLRLSCAASGLTFNYYDMGWYRQAPGKERELVAAISRSGTNTSYADSVKGRFTISRDNAKNTVYLQMNSLKPEDTAVYYCNAAGVYLAAGPYTANFNYNYWGQGTQVTVSS,low polyreactivity
28,QVQIVETGGGLVQAGGSLRLSCEASGSTFRNYAMGWYRQATGKERELDAAISSGGSTNYADSVKGRFTISRDNAKNTVFLQMNSLKPEYTAVYYCAAKAWYYPGSRIYYQYYYWGQGTQVTVSS,high polyreactivity
29,QVQLVESGGGLVQAGGSLRLICAASGRIINGYAMVWYRQAPGKERELVAANSVSGGSTYYADSVKGRFTISRDNAKNTVYLQMNSMKPEDTAVYYCNARIGSRSYAWISTRYDYWGQGNQVTVSS,high polyreactivity
30,QVQLVESGGGLVQAGGSLRLSCAASGSTFTRYAMGSYRQAPGKERELVAAISRTGGSRTYYADSVKGRFTISRDNAKNTVYLQMNSLNPEDTAVYYCAKGYWRYLGFLYFFPARDYWGQGTQVTVSS,high polyreactivity
